The results in this text go back to patent publication US20120301899A1 (AGENCY FOR SCIENCE TECHNOLOGY AND RESEARCH, published 2012).

For the assay, the target named is T1, podocalyxin-like protein-1 (PODXL) (human, UniProt O00592 23-558).
T1 construct: whole, on cells; In the flow cytometry experiments the target is undifferentiated hESC; also called PCLPI; Podocalyxin-like protein 1 precursor
T1 sequence (looked up): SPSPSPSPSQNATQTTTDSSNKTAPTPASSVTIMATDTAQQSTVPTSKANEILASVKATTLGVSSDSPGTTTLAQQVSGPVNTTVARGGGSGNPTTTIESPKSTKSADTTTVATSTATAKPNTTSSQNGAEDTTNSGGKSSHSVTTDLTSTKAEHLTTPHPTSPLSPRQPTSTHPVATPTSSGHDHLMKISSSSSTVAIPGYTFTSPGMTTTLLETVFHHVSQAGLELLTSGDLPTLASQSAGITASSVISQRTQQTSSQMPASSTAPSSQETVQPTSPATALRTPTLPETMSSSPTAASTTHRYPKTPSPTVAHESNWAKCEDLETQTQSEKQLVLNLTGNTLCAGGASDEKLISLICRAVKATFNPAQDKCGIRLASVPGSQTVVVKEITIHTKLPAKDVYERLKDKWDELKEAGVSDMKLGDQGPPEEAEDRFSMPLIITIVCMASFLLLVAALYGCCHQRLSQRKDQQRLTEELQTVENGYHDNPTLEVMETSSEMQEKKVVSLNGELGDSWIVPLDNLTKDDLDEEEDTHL
The assay is described as follows: kinetics of binding to PODXL on the surface of hESCs; method not stated.

B1: monoclonal antibody mAb 84 (antibody, V domains shown)
VH: QVQLQQSGGGLVQPGGSMKLSCVASGFTFSNYWMNWVRQSPEKGLEWVAEIRLKSNNYATHYAESVKGRFTISRDDSKSSVYLQMNNLRAEDTGIYYCTGERAWGQGTTVTVSS
VL: DIELTQSPAIMSASPGEKVTMTCSASSSVNYMYWYQQKPGSSPRLLIYDTSNLASGVPVRFSGSGSGTSYSLTISRMEAEDAATYYCQQWSSYPYTFGGGTKLEIKR
B1: the dissociation constant Kd is 40 nM, the koff was 0.0029 s⁻¹ and the on-rate constant (kon) came to 71000 M⁻¹ s⁻¹.
